Assay results as given in PMC12162372, “Imaging Cell Surface Plectin in PDAC Patients – A First-In-Human Phase 0 Study Report” (Molecular Imaging and Biology, 2025).
Ends that are not written are not given here.

Experiments:
[1] = human, in vivo
Method: (§1) Each patient received a single intravenous 100 µg bolus dose of PTP-01 labeled with 370 MBq ^111In. Whole-body planar scintigraphy was performed at 10 min post-injection, followed by scans at 1, 2, 3, 4, 20, and 50 h. SPECT/CT imaging was performed at 4, 20, and 50 h post-injection using a Siemens Symbia™ T6 dual-head SPECT/CT system with low-energy high-resolution (LEHR) collimators optimized for ^111In imaging. […] Quantitative analysis was conducted at the time using fused SPECT/CT images, and planar imaging remains available for biodistribution assessment. Tumor ROIs were initially defined using fused SPECT/CT images and cross-referenced with planar data for consistency. […] However, attenuation correction was not applied to the SPECT images, as full quantitative SPECT reconstruction was not supported by the scanner at the time. Quantitative analysis (%ID) was derived from planar scintigraphy data using calibration factors from a standard source (syringe) imaged under identical conditions. While SPECT/CT facilitated ROI placement, quantitative measurements were based on planar scintigraphy due to the absence of attenuation-corrected SPECT data. […]
Blood clearance parameters were calculated individually for each patient based on a biexponential fit to blood %ID/g data. […]

CSP = conditions: input parameter applied to all patients in the Krogh cylinder model, no reference given, cited from earlier work
CSP in pancreatic tumors [2] = molecular target: T1, CSP in pancreatic tumors (Homo sapiens, UniProt Q15149); assay: Ex vivo planar scintigraphy of resected tumor and adjacent normal tissue; assay type: in vivo; set-up: from tissue; host or cells: pancreatic tumours of patients, imaged in vivo and as resected specimens
T1 sequence (Q15149 whole entry): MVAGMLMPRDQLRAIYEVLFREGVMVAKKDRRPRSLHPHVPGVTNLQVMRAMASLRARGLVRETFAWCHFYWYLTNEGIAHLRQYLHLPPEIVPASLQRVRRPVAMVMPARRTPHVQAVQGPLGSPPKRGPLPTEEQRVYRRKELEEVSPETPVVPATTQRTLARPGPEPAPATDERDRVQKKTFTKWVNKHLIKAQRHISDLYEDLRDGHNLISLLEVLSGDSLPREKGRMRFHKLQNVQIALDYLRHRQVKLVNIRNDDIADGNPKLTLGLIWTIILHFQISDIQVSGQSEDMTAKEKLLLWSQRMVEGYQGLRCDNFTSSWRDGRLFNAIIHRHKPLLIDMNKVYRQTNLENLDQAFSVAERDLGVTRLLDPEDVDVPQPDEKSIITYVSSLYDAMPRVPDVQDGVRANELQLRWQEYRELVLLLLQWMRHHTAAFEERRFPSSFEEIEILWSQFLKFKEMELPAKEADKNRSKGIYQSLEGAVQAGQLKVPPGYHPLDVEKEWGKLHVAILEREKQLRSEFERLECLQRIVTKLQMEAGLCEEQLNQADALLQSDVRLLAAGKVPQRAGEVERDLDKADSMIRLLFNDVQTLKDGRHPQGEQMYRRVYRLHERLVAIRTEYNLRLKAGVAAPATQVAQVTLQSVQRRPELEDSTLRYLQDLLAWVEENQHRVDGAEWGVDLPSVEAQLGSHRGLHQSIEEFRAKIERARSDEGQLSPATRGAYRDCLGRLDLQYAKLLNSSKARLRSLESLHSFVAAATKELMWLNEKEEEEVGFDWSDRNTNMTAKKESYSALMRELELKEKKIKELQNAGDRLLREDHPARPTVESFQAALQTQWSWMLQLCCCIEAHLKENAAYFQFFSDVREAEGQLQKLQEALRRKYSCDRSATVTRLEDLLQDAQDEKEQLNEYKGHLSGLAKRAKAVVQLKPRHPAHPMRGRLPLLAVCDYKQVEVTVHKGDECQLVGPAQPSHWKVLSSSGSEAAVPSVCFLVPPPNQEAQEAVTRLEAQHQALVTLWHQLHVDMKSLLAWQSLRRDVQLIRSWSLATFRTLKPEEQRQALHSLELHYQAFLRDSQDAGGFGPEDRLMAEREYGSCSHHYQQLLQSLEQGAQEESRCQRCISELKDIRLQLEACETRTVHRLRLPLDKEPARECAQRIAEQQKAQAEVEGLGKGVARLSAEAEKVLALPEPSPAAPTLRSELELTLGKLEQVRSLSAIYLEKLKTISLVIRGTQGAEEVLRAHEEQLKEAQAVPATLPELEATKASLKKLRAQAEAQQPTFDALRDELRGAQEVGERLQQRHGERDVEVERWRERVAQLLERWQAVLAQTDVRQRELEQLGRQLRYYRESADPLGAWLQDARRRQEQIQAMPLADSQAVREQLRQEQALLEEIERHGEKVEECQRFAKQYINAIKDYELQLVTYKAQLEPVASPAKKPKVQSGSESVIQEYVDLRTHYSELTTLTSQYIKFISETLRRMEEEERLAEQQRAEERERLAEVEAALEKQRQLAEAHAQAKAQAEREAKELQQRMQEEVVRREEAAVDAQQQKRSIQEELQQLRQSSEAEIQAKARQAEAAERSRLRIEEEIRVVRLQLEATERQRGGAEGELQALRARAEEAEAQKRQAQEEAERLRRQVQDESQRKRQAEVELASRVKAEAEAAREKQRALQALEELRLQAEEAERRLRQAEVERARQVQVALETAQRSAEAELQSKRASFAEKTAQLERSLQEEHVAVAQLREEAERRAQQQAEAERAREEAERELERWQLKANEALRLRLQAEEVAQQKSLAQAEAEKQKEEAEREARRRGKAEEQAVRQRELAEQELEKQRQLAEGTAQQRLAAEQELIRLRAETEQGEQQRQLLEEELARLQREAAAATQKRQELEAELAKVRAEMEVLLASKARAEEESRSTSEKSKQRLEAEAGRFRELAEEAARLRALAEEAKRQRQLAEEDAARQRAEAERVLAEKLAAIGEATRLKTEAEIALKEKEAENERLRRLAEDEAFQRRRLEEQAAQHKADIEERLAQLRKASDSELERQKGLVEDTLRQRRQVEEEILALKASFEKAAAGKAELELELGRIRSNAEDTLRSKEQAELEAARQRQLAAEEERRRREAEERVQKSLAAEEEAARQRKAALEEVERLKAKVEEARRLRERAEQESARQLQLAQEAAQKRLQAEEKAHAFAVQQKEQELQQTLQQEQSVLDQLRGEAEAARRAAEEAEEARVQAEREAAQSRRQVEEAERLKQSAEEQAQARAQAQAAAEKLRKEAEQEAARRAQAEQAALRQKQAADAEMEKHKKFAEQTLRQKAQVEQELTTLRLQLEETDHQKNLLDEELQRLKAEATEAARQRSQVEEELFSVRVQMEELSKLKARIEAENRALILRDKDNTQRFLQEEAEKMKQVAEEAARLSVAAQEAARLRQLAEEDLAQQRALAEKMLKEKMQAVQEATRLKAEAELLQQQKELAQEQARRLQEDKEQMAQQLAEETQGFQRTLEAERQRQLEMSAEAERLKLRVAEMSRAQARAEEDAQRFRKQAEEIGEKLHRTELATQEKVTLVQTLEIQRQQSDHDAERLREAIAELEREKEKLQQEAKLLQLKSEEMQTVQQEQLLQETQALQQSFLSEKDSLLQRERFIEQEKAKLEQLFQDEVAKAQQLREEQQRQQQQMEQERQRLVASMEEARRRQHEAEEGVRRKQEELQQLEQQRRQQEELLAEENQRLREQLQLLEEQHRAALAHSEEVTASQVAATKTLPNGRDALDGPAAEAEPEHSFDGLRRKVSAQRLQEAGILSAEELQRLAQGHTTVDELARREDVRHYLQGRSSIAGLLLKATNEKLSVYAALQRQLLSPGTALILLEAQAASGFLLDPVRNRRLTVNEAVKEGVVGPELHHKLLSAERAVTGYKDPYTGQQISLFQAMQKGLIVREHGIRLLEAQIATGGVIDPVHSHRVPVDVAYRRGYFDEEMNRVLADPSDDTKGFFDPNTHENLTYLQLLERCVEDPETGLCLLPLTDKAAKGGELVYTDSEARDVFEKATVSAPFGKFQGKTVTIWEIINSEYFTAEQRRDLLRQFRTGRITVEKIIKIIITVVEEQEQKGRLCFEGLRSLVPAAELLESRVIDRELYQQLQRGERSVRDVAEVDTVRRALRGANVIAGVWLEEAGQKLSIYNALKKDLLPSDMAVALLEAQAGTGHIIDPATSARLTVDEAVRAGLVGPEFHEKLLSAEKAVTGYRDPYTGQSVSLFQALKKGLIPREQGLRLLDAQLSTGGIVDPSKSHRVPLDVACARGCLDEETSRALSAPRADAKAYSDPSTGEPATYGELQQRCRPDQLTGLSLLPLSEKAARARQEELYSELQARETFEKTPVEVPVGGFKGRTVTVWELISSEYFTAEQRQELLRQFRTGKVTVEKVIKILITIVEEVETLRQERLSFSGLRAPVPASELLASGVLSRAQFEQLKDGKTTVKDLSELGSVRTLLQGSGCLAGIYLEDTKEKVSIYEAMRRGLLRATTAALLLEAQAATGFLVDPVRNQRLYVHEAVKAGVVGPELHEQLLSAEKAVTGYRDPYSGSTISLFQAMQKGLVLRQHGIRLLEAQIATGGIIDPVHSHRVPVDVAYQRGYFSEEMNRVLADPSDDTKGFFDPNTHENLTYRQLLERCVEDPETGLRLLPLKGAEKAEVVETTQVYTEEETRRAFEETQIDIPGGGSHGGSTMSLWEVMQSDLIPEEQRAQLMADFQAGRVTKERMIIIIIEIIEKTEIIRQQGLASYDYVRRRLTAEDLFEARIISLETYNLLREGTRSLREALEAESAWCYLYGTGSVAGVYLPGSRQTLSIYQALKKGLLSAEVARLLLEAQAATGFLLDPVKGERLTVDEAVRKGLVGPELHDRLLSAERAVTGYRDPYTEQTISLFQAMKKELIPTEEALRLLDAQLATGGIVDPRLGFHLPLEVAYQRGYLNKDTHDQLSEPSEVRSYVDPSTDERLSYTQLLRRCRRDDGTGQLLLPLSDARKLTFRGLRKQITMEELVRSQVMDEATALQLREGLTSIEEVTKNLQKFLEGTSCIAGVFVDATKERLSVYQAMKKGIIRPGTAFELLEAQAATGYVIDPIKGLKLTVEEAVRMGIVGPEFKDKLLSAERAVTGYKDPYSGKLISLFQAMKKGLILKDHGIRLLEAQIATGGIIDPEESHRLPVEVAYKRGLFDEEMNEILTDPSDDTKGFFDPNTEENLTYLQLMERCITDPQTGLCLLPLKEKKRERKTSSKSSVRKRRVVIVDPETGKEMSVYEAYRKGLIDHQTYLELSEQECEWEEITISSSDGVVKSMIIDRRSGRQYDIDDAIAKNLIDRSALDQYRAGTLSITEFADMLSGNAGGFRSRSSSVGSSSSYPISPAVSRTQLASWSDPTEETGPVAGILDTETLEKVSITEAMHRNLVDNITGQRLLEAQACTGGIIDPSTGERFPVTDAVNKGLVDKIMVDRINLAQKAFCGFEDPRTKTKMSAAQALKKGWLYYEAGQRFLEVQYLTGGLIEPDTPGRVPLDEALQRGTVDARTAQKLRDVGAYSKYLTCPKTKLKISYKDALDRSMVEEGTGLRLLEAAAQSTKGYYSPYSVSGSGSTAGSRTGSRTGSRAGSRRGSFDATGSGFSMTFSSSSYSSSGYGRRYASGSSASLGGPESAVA
Method: Following surgery, ex vivo planar images of the resected tumor and adjacent normal tissue (e.g., pancreas and duodenum) were obtained at 28 h post-injection. This timing aligns with surgical resection, allowing immediate imaging of fresh specimens. A white light image was collected for one patient to confirm tumor localization, but these images were not systematically obtained.
For ex vivo images, tumor ROIs were drawn using white light imaging, with the surrounding tissue considered background. […] The activity was calculated using planar data methods, ignoring the self-attenuation of the tissue because of tissue thickness.

CSP in pancreatic tumors [3] = molecular target: T1, CSP in pancreatic tumors; set-up: CSP, typically localized intracellularly in healthy cells, is aberrantly expressed on the surface of cancer cells; from tissue; host or cells: pancreatic tumours of patients, imaged in vivo and as resected specimens; conditions: in vivo, iv, 100 ug
Method: as §1
For in vivo images, we generated eight ROIs for each patient, including bladder, heart, left kidney, right kidney, liver, syringe, whole body, and tumor. […] Results were expressed as percent injected dose (%ID). […]

[4] = system: CSP (plectin) in murine tumor models; conditions: preclinical SPECT imaging of murine tumor models; cited from earlier work
From the text: The CSP-targeting peptide KTLLPTP has been adapted for numerous applications as a targeting ligand for imaging agents. […] Tumor models with higher CSP levels also had correspondingly high tumor uptake of ^99mTc-KTLLPTP. Here we report the results of a phase 0 trial examining a tetrameric version of KTLLPTP labeled with ^111In called PTP-01 (NCT01962909) in patients with resectable p ...

Substance	blood concentrations, fold higher than in the other two patients [1]	elimination half-life (T1/2) ([1]; iv)	Association rate constant (kon) (CSP)	Internalization half-life (CSP)	Residualization half-life (CSP)	Kd (CSP; read-out: Dissociation constant (KD))	tumor-to-background ratio (CSP in pancreatic tumors [2]; all three patients, confirmed by ex vivo planar scintigraphy)	tumor-to-background ratio (CSP in pancreatic tumors [2]; ex vivo planar scintigraphy of resected specimens, 28 h post-injection, mean across patients)	average cumulative retention in tumor (CSP in pancreatic tumors [3])	tumor accumulation, biodistribution and blood clearance [4]
PTP-01: tetrameric version of KTLLPTP on a branched PEG linker, labeled with ^111In via DOTA; CSP-targeting imaging agent (also: tetramer on branched PEG linker, DOTA chelator labelled with 111In)	50-70 fold	5 to 22 h	100000 M⁻¹ s⁻¹	13 h	120 h	90 nM	exceeding 2	2.18 ± 0.14	8.90 ± 3.31 %ID	
^99mTc-KTLLPTP										a tumor accumulation and favorable biodistribution in addition to fast blood clearance
